Assay: soluble on expression in E. coli; label from the status in PepcDB or PDB records

Sequence | soluble on expression in E. coli
METTQTLRFKTKALAVLSKCYDHAQTHLKGGVLQVNLLSVNYGGPRLAAVANAGTAGLISFEVSPDAVAEWQNHQSPEEAPAAVSFRNLAYGRTCVLGKELFGSAVEQASLQFYKRPQGGSRPEFVKLTMEYDDKVSKSHHTCALMPYMPPASDRLRNEQMIGQVLLMPKTASSLQKWARQQGSGGVKVTLNPDLYVTTYTSGEACLTLDYKPLSVGPYEAFTGPVAKAQDVGAVEAHVVCSVAADSLAAALSLCRIPAVSVPILRFYRSGIIAVVAGLLTSAGDLPLDLSVILFNHASEEAAASTASEPEDKSPRVQPLGTGLQQRPRHTVSPSPSPPPPPRTPTWESPARPETPSPAIPSHSSNTALERPLAVQLARKRTSSEARQKQKHPKKVKQAFNPLI | soluble
MSGSFELSVQDLNDLLSDGSGCYSLPSQPCNEVTPRIYVGNASVAQDIPKLQKLGITHVLNAAEGRSFMHVNTNANFYKDSGITYLGIKANDTQEFNLSAYFERAADFIDQALAQKNGRVLVHCREGYSRSPTLVIAYLMMRQKMDVKSALSIVRQNREIGPNDGFLAQLCQLNDRLAKEGKLKP | soluble
MKAFILAAGSGERLEPITHTRPKAFVPILSKPLIEYQIEYLRKCGIRDITVIVSSKNKEYFEKKLKEISIVTQKDDIKGTGAAILSAKFNDEALIIYGDLFFSNEKEICNIITLKENAIIGVKVSNPKDYGVLVLDNQNNLSKIIEKPEIPPSNLINAGIYKLNSDIFTYLDKISISERGELELTDAINLMAKDHRVKVIEYEGYWMDIGKPWNIIDVNKWALDNLVFSQNLGNVEDNVKIKGKVIIEEDAEIKSGTYIEGPVYIGKGSEIGPNSYLRPYTILVEKNKIGASVEVKESVIMEGSKIPHLSYVGDSVIAEDVNFGAGTLIANLRFDEKEVKVNVKGKRISSGRRKLGAFIGGHVRTGINVTILPGVKIGAYARIYPGAVVNRDVGYGEFFKV | soluble
MIRELFEKEGFTLDEEQERKFSIYLQELLRWNKVHNLTSIKKPEEIVRRHFIDSVSVVRCFERIGLDLRGKHFADVGSGAGFPGVPLKIYLKDIKLTLIESVSKKCSFLEYLKIKLNEDYRVLCTRAEKVEEKFDVVLARALGEFEEVKEILEKLSIGYVFVYKGSKLKEEWLKDYKLCELSLSFMPKSYILWKKVLEHHHHHH | not soluble
MSSILTNNGAMVALQTLKSVNMNLGQTQNAISTGKNVATAKDNSAVWAISKVMESDVKGFKAIKDSLSLGESTVAVARNAAETVTDLLTQMKGKIVAAQEDNVDRNKINADVTALKDQISAVVGAAQFNGLNLVDGTAASASVLSSLDRDNAGNVTASSITVTGQNLSTGGYTAKAVFDATNTDGVSADGQDTFGFSLDANGGTDDNGQIEFEPQGTAAYAAGDSFTIRLGDTEVNYTVTAEDIASTSQADVIAVGMKAAIEASGANVTVDYNAANSGRLVITNDGTDSLQVSGQFSNANSGGLGALAAIDVSNSAGAAAALGSIETLIDTSIDAAAAFGSVQGRIETQKTFISNLTDSLKSGIGSMVDADMEEVSARLQALQVQQQLAVQSLSIANQAPQSILSLFR | not soluble
MKRFGRFAGIALVLVVAALTARSCFSHDLIVRLSDRKEISFKQMMGDLRKVAVIYVGEVHDNPDHHVLQLRIIRGLHRAGVPLAIGMEMFTAGSQQELDRWVAGQTGTAAFQRIYRREWNLPWSLYGDILLFARDKRIPLIGLNVPRDITRKVGREGFASLTEDERRKLPPNITCDVDESYMAMIHRSYSSHGLSANTFRNFCEAQMLWNKSMAYHMVEYLRKNPGRTVVVITGGGHAIRGGMPVQVDRERPGLSSRVVLPDPVVRNGRIKAEEADYLWLSHLEHHHHHH | not soluble
MSLSILVTGATGTIGSLVTQGLASAGADVKAMVRQPGKRDFPAGVTEVVADLTDVSSMRVALSSVRTLFLLNAVTPDEVTQALIALNLAQEAGIERIVYLSVIHADTFTNVPHFTGKYTVERMIESLDIPATILRPAYFMQNDLMVQQTIQSYSVYPMPIGSAGVSMIDARDIADVAVAELLRRDEASSALDLVTLELVGPQALTGASVAQTWSSALDREIAYGGDDVAAFEGQLASYGPGWLAYDMRLMMAGIQKFGMQAAEGAVERLEAIIGHPLRSYEGFVREATAGEGHHHHHH | soluble
MTKAKRTYEPWYWANEHTRLYMRRGYLLPGVSVEERVKEIAQRAEALTKVEGFGRKFLEYMARGWYSLATPIWANYGLRRGLPISCYGTYVEDDTASILRAVAEVGMMSKQGGGTSLYLGRLRPRGAPIRDNGESNGSFAFASLFDRVIEVFNQGSTRRGQCAAYLDVEHPDLEEWLSIQREHSPVQSLFWGVSVGDRWLEEMIAGDGEKRARWAKILKSRAEVGIPYLFFRDNANQKAPEVFRALGKTIWASNLCTEIMLPSSEEESFVCCLSSLNLLHYEEWKDTDAVETLVIFLDSVLDDFIEKAEGIPYMERAVRFAKRYRAIGLGVLGWHSYLQSQRIPLESPEAFRRNAEIFKTIRERAEEASRWLRKRHPEDELAGVGELKERRNATLLAIAPTKSSAFILGQVSPSIEPYTSNYYLKDLQKARVPFKNPFLEEVLREKGKDEEKVWRSILEHNGSVQHLDFLTDEEKAVFKTFAEISQMTLVNLAASRQKHIDQGQSLNLVIHPEAPPRDVNALVLHAWRSGLKALYYQFSQSVAQAYSRDLLLSCQACEG | soluble
MRRAFITGVFFLSEVEFSHEYWMRHALTLAKRAWDEREVPVGAVLVHNNRVIGEGWNRPIGRHDPTAHAEIMALRQGGLVMQNYRLIDATLYVTLEPCVMCAGAMIHSRIGRVVFGARDAKTGAAGSLMDVLHHPGMNHRVEITEGILADECAALLSDFFRMRRQEIKAQKKAQSSTD | soluble
MTEVIGIKFEENGAVEYVVPDKNYTKGDFVVVLEKKDKRLAQVVMENTVFPEVSLPVDLNRVEGLASKRDFARYDENLLKAEQSMGVVADLIAQNQLDMKVVDIVFPLNSSYVLISFVAEKRVDFRQLLEDLAAYFKTRIELRQISSREESKIYGGLGPCGRALCCSSFLGEFPPVSIKMAKNQSLSLNSGKMNGVCGRLMCCLSYEDDFYRDSKASYPDLGEEIETKEGRGQVIAIDVIAGTVKVMFEKGGAPLTYGVEEVQLNGKAAAALEHHHHHH | soluble
MGSDKIHHHHHHMDFLDFEKVFSFYSKATKKGFSPFFVPALEKAEEPAGNFFLDRKGNLFSIREDFTKTVLNHRKRYSPDSQIKVWYADFVYRYSGSDLVAEYQLGLEKVPRNSLDDSLEVLEIIVESASEFFEGPVIVEIGHTGVYEDLLKEIPKDLHEKVLNLIDTKNLAEIEFLSHMKKIDLSRVEKIIEDSIYRRSPEHLKTMDLPLSVREDLLSASSFLQEKFPTVSVEIDLTLARTIEEYCGLIFTIYDTSSSRLVAAGGEYTVNGEKGVGGSIFLEGKTC | not soluble
MSLAPRQVNCILRTNEHTQEFFGGSVKSYDSNQLASNSPIEDSRSEASCVHTSGLLLGIFDGHGGPACSQVISKRLMRYIAASLVPPDDLRQHVLNGAQSFSFLSCHNDKARCGYEIKELYEKSFHQFANELTNTTLAGFQMHQTLENAFIRLDQDLSREAIEMPSLRTMSVAMSGAVALVAHIDGPHLHVASVGDCSAVLGTVTDTGQWMAKKLTNEHNSDNVGEVRRLLSEHPATERDTVIRGERLLGQLAPLRAMGDFRYKWSREQLEQLVVPQFGEQVIAPYYLTPPYLSACPEITHHILTPRDKFLIIASDGLWDTMSAMQTVHLVGEHMYGKAFLQPLTLPKQDITLGEISQMLTTRKAGLQKKPLDRNAATHLIRNALGGTEYGVEHSKLSHMLSLPQDIVRLFRDDITITVVYFDSEYLEGHHHHHH | not soluble
AHHHHHHGSVKHYSVKVITAKSRTRLGLQLADARINELFNMIQDKTLRRDPLLISRRLVPSWATLNSFMLYFGLILAKEEVSISCTLESAT | not soluble
MNIRCARVDDLMSMQNANLMCLPENYQMKYYFYHALSWPQLSYIAEDHKGNVVGYVLAKMEEDPGEEPHGHITSLAVKRSYRRLGLANKMMDQTARAMVETYNAKYVSLHVRVSNRAALNLYKNTLKFEIVDTEPKYYADGEDAYAMRRDLAKWAEERNIEPADREAYTTAKTTDDKKKNRS | not soluble
